Measured values: paper PMC10929410

B1: native FlaB (flagellin type B, glycosylated) of Pseudomonas aeruginosa strain PAO1 (natural protein)
chain: MALTVNTNIASLNTQRNLNASSNDLNTSLQRLTTGYRINSAKDDAAGLQISNRLSNQISGLNVATRNANDGISLAQTAEGALQQSTNILQRIRDLALQSANGSNSDADRAALQKEVAAQQAELTRISDTTTFGGRKLLDGSFGTTSFQVGSNAYETIDISLQNASASAIGSYQVGSNGAGTVASVAGTATASGIASGTVNLVGGGQVKNIAIAAGDSAKAIAEKMDGAIPNLSARARTVFTADVSGVTGGSLNFDVTVGSNTVSLAGVTSTQDLADQLNSNSSKLGITASINDKGVLTITSATGENVKFGAQTGTATAGQVAVKVQGSDGKFEAAAKNVVAAGTAATTTIVTGYVQLNSPTAYSVSGTGTQASQVFGNASAAQKSSVASVDISTADGAQNAIAVVDNALAAIDAQRADLGAVQNRFKNTIDNLTNISENATNARSRIKDTDFAAETAALSKNQVLQQAGTAILAQANQLPQAVLSLLR
modifications: simple O-glycan without rhamnose, attached via deoxyhexosamine
B2: recombinant FlaB (non-glycosylated) (natural protein)
chain: B1 chain
B3: deglycosylated native FlaB (natural protein)
chain: B1 chain
modifications: treated with trifluoromethanesulfonic acid to remove the O-glycans

Target: human Toll-like receptor 5 on HEK-Blue-hTLR5 reporter cells (human) (UniProt O60602)
UniProt O60602, sequence (O60602 21-858): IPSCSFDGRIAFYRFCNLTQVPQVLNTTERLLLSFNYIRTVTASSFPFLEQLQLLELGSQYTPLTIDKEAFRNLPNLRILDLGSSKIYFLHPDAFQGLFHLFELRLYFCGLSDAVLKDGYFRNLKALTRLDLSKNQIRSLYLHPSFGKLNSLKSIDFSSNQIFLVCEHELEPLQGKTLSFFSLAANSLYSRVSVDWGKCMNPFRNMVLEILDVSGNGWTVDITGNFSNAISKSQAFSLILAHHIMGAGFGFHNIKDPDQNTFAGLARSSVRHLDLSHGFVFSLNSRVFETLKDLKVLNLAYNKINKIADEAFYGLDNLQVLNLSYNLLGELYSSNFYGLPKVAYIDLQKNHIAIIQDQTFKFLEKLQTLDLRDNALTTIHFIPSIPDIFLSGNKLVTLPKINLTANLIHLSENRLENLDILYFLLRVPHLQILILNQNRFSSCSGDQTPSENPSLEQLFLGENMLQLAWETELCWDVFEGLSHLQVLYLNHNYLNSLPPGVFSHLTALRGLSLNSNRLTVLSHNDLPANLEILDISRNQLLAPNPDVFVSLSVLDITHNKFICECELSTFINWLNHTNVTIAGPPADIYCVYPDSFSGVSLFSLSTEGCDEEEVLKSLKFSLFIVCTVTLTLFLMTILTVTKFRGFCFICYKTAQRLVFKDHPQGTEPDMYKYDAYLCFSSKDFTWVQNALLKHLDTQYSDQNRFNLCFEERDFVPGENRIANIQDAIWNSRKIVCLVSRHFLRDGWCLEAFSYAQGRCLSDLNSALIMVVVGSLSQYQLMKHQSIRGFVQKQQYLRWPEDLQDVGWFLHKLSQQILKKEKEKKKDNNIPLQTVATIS

Molecule | EC50 of TLR5 activation (SEAP, OD 620 nm) in HEK-Blue-hTLR5 reporter cells, 10 pg/mL to 10 µg/mL, 24 h | EC50 of TLR5 activation (SEAP, OD 620 nm) in HEK-Blue-hTLR5 reporter cells, 10 pg/mL to 10 µg/mL, 24 h; the sentence prints the label dnFlaA, taken as dnFlaB from the context of Fig. 4D
deglycosylated native FlaA (from UniProt P21184 1-394) (natural protein) | 0.291 µg/mL | –
native FlaA (flagellin type A, glycosylated) of Pseudomonas aeruginosa strain PAK (from UniProt P21184 1-394) (natural protein) | 0.0021 µg/mL | –
recombinant FlaA (non-glycosylated) (from UniProt P21184 1-394) (natural protein) | 0.0415 µg/mL | –
B1 | 0.0444 µg/mL | –
B2 | 104 | –
B3 | – | 0.442 µg/mL
